The record followed here is publication PMC4500542 (Cell reports, 2015).

Where two headings read alike, the source gives them in different places.

As a reminder, the Kd is the free concentration of one partner at which half of the binding sites on the other are occupied at equilibrium, for simple one-to-one binding.

For data set [1], the target named is EBOV NP° core domain (NP 34-367) (Ebola virus (EBOV, formerly Zaire ebolavirus)) (UniProt P18272). In words: ITC. For orientation: In ITC the heat of successive injections is recorded.
Data set [2] deals with the molecule itself. In words: SEC-MALS. In general terms: Size exclusion chromatography separates by hydrodynamic size, large species first.
Data set [3] concerns the molecule itself. In words: SEC-MALS. The source holds these as a separate data set.

“EBOV VP35 1-80 peptide (purified, wild type) (from UniProt Q05127 1-80) (domain or fragment)”: in data set [1], the Kd came to 1.1 nM.

B1: MBP-EBOV NP 1-450 (oligomeric, RNA-bound) (domain or fragment)
chain: MDSRPQKIWMAPSLTESDMDYHKILTAGLSVQQGIVRQRVIPVYQVNNLEEICQLIIQAFEAGVDFQESADSFLLMLCLHHAYQGDYKLFLESGAVKYLEGHGFRFEVKKRDGVKRLEELLPAVSSGKNIKRTLAAMPEEETTEANAGQFLSFASLFLPKLVVGEKACLEKVQRQIQVHAEQGLIQYPTAWQSVGHMMVIFRLMRTNFLIKFLLIHQGMHMVAGHDANDAVISNSVAQARFSGLLIVKTVLDHILQKTERGVRLHPLARTAKVKNEVNSFKAALSSLAKHGEYAPFARLLNLSGVNNLEHGLFPQLSAIALGVATAHGSTLAGVNVGEQYQQLREAATEAEKQLQQYAESRELDHLGLDDQEKKILMNFHQKKNEISFQQTNAMVTLRKERLAKLTEAITAASLPKTSGHYDDDDDIPFPGPINDDDNPGHQDDDPTDSQ
For the molecule B1, the binding result in the data set “SEC-MALS [2]” is “binds”.

B2: EBOV NP 1-450 (oligomeric, RNA-bound, purified directly from E. coli) (domain or fragment)
chain: MDSRPQKIWMAPSLTESDMDYHKILTAGLSVQQGIVRQRVIPVYQVNNLEEICQLIIQAFEAGVDFQESADSFLLMLCLHHAYQGDYKLFLESGAVKYLEGHGFRFEVKKRDGVKRLEELLPAVSSGKNIKRTLAAMPEEETTEANAGQFLSFASLFLPKLVVGEKACLEKVQRQIQVHAEQGLIQYPTAWQSVGHMMVIFRLMRTNFLIKFLLIHQGMHMVAGHDANDAVISNSVAQARFSGLLIVKTVLDHILQKTERGVRLHPLARTAKVKNEVNSFKAALSSLAKHGEYAPFARLLNLSGVNNLEHGLFPQLSAIALGVATAHGSTLAGVNVGEQYQQLREAATEAEKQLQQYAESRELDHLGLDDQEKKILMNFHQKKNEISFQQTNAMVTLRKERLAKLTEAITAASLPKTSGHYDDDDDIPFPGPINDDDNPGHQDDDPTDSQ
Regarding B2, in “SEC-MALS [2]”, the binding result is recorded as “binds”.

B3: EBOV NP 1-450 released by TEV protease from the cleavable fusion (RNA-free) (domain or fragment)
chain: MDSRPQKIWMAPSLTESDMDYHKILTAGLSVQQGIVRQRVIPVYQVNNLEEICQLIIQAFEAGVDFQESADSFLLMLCLHHAYQGDYKLFLESGAVKYLEGHGFRFEVKKRDGVKRLEELLPAVSSGKNIKRTLAAMPEEETTEANAGQFLSFASLFLPKLVVGEKACLEKVQRQIQVHAEQGLIQYPTAWQSVGHMMVIFRLMRTNFLIKFLLIHQGMHMVAGHDANDAVISNSVAQARFSGLLIVKTVLDHILQKTERGVRLHPLARTAKVKNEVNSFKAALSSLAKHGEYAPFARLLNLSGVNNLEHGLFPQLSAIALGVATAHGSTLAGVNVGEQYQQLREAATEAEKQLQQYAESRELDHLGLDDQEKKILMNFHQKKNEISFQQTNAMVTLRKERLAKLTEAITAASLPKTSGHYDDDDDIPFPGPINDDDNPGHQDDDPTDSQ
Regarding B3, in “SEC-MALS [2]”, the binding result is recorded as “binds”.

B4: EBOV NP 1-450 (co-expressed with His-VP35 1-80) (domain or fragment)
chain: MDSRPQKIWMAPSLTESDMDYHKILTAGLSVQQGIVRQRVIPVYQVNNLEEICQLIIQAFEAGVDFQESADSFLLMLCLHHAYQGDYKLFLESGAVKYLEGHGFRFEVKKRDGVKRLEELLPAVSSGKNIKRTLAAMPEEETTEANAGQFLSFASLFLPKLVVGEKACLEKVQRQIQVHAEQGLIQYPTAWQSVGHMMVIFRLMRTNFLIKFLLIHQGMHMVAGHDANDAVISNSVAQARFSGLLIVKTVLDHILQKTERGVRLHPLARTAKVKNEVNSFKAALSSLAKHGEYAPFARLLNLSGVNNLEHGLFPQLSAIALGVATAHGSTLAGVNVGEQYQQLREAATEAEKQLQQYAESRELDHLGLDDQEKKILMNFHQKKNEISFQQTNAMVTLRKERLAKLTEAITAASLPKTSGHYDDDDDIPFPGPINDDDNPGHQDDDPTDSQ
For the molecule B4, the binding result in the data set “SEC-MALS [2]” is on record as “binds”.

B5: MBP-EBOV NP 1-739 (oligomeric, RNA-bound) (natural protein)
chain: MDSRPQKIWMAPSLTESDMDYHKILTAGLSVQQGIVRQRVIPVYQVNNLEEICQLIIQAFEAGVDFQESADSFLLMLCLHHAYQGDYKLFLESGAVKYLEGHGFRFEVKKRDGVKRLEELLPAVSSGKNIKRTLAAMPEEETTEANAGQFLSFASLFLPKLVVGEKACLEKVQRQIQVHAEQGLIQYPTAWQSVGHMMVIFRLMRTNFLIKFLLIHQGMHMVAGHDANDAVISNSVAQARFSGLLIVKTVLDHILQKTERGVRLHPLARTAKVKNEVNSFKAALSSLAKHGEYAPFARLLNLSGVNNLEHGLFPQLSAIALGVATAHGSTLAGVNVGEQYQQLREAATEAEKQLQQYAESRELDHLGLDDQEKKILMNFHQKKNEISFQQTNAMVTLRKERLAKLTEAITAASLPKTSGHYDDDDDIPFPGPINDDDNPGHQDDDPTDSQDTTIPDVVVDPDDGSYGEYQSYSENGMNAPDDLVLFDLDEDDEDTKPVPNRSTKGGQQKNSQKGQHIEGRQTQSRPIQNVPGPHRTIHHASAPLTDNDRRNEPSGSTSPRMLTPINEEADPLDDADDETSSLPPLESDDEEQDRDGTSNRTPTVAPPAPVYRDHSEKKELPQDEQQDQDHTQEARNQDSDNTQSEHSFEEMYRHILRSQGPFDAVLYYHMMKDEPVVFSTSDGKEYTYPDSLEEEYPPWLTEKEAMNEENRFVTLDGQQFYWPVMNHKNKFMAILQHHQ
B5: the binding result in the data set “SEC-MALS [3]” is “binds”.

B6: MBP-EBOV NP 19-389 (domain or fragment)
chain: MDYHKILTAGLSVQQGIVRQRVIPVYQVNNLEEICQLIIQAFEAGVDFQESADSFLLMLCLHHAYQGDYKLFLESGAVKYLEGHGFRFEVKKRDGVKRLEELLPAVSSGKNIKRTLAAMPEEETTEANAGQFLSFASLFLPKLVVGEKACLEKVQRQIQVHAEQGLIQYPTAWQSVGHMMVIFRLMRTNFLIKFLLIHQGMHMVAGHDANDAVISNSVAQARFSGLLIVKTVLDHILQKTERGVRLHPLARTAKVKNEVNSFKAALSSLAKHGEYAPFARLLNLSGVNNLEHGLFPQLSAIALGVATAHGSTLAGVNVGEQYQQLREAATEAEKQLQQYAESRELDHLGLDDQEKKILMNFHQKKNEISFQ
Turning to B6, in the data set “SEC-MALS [2]”, the binding result is “binds”.
